24 sequences from the supplement of paper PMC9428881 can be followed below.

± gives the standard error.

A short description of the series: background-corrected fluorescence of 3'-dye-labeled ssDNA relative to brightest sequence (3'-GCGCG) (fraction); higher = brighter dye fluorescence (less quenching). As for the experimental part: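 Single-stranded DNA is synthesized in situ on glass microarrays by 5'->3' photolithographic synthesis, with a Cy3 or Cy5 phosphoramidite coupled at the 3' end next to all 1024 permuted pentamers P1-P5. The construct is 5'-T5-(ACGT minus P5..P1 trinucleotides)-T15-P5P4P3P2P1-dye-3'; the dye is a 3' terminal modification, not part of the sequence. Arrays were scanned at 532 nm (Cy3) or 635 nm (Cy5), background from unlabeled oligos was subtracted, and values are averaged over 10 replicate features per array and at least 3 independent syntheses.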

As for “TTTTTGCATCATGAGCATGATTTTTTTTTTTTTTTTGCTC [CTCGT]”, the background-corrected fluorescence runs as follows: (dye: Cy3 (3' terminal)) 0.374 ± 0.037; (dye: Cy5 (3' terminal)) 0.296 ± 0.036.

For “TTTTTGCATCATGAGCATGCTTTTTTTTTTTTTTTTGCTA [ATCGT]”, the background-corrected fluorescence (dye: Cy3 (3' terminal)) was 0.55 ± 0.032 and the background-corrected fluorescence (dye: Cy5 (3' terminal)) is 0.399 ± 0.041.

Consider “TTTTTGCATCATGATCAGCATTTTTTTTTTTTTTTTGCGT”, for which the background-corrected fluorescence by setting is: (dye: Cy3 (3' terminal)) 0.6597 ± 0.003; (dye: Cy5 (3' terminal)) 0.516 ± 0.061.

In turn, “TTTTTGCATCATGATCATCATTTTTTTTTTTTTTTTGCGG [GGCGT]” came in with a background-corrected fluorescence (dye: Cy3 (3' terminal)) of 0.603 ± 0.016 and a background-corrected fluorescence (dye: Cy5 (3' terminal)) of 0.543 ± 0.032.

The sequence “TTTTTGCATCATGATCATGATTTTTTTTTTTTTTTTGCGC [CGCGT]” displayed a background-corrected fluorescence (dye: Cy3 (3' terminal)) of 0.596 ± 0.02 and a background-corrected fluorescence (dye: Cy5 (3' terminal)) of 0.48 ± 0.034.

Consider “TTTTTGCATCATGATCATGCTTTTTTTTTTTTTTTTGCGA [AGCGT]”, for which the background-corrected fluorescence was 0.675 ± 0.036 (dye: Cy3 (3' terminal)) and 0.616 ± 0.044 (dye: Cy5 (3' terminal)).

“TTTTTGCATCATGATGAGCATTTTTTTTTTTTTTTTGCCT [TCCGT]”: the background-corrected fluorescence turned out to be 0.444 ± 0.011 (dye: Cy3 (3' terminal)) and 0.356 ± 0.021 (dye: Cy5 (3' terminal)).

For the sequence “TTTTTGCATCATGATGATCATTTTTTTTTTTTTTTTGCCG [GCCGT]”, the background-corrected fluorescence worked out at 0.519 ± 0.027 (dye: Cy3 (3' terminal)) and 0.389 ± 0.029 (dye: Cy5 (3' terminal)).

In the case of “TTTTTGCATCATGATGATGATTTTTTTTTTTTTTTTGCCC [CCCGT]”, the background-corrected fluorescence runs as follows: (dye: Cy3 (3' terminal)) 0.378 ± 0.032; (dye: Cy5 (3' terminal)) 0.272 ± 0.016.

Turning to “TTTTTGCATCATGATGATGCTTTTTTTTTTTTTTTTGCCA [ACCGT]”, the background-corrected fluorescence runs as follows: (dye: Cy3 (3' terminal)) 0.519 ± 0.0069; (dye: Cy5 (3' terminal)) 0.403 ± 0.029.

Turning to “TTTTTGCATCATGATGCGCATTTTTTTTTTTTTTTTGCAT [TACGT]”, the background-corrected fluorescence reads like this: (dye: Cy3 (3' terminal)) 0.529 ± 0.02; (dye: Cy5 (3' terminal)) 0.394 ± 0.02.

With “TTTTTGCATCATGATGCTCATTTTTTTTTTTTTTTTGCAG [GACGT]”, the background-corrected fluorescence reads like this: (dye: Cy3 (3' terminal)) 0.526 ± 0.033; (dye: Cy5 (3' terminal)) 0.425 ± 0.029.

Regarding “TTTTTGCATCATGATGCTGATTTTTTTTTTTTTTTTGCAC [CACGT]”, the background-corrected fluorescence runs as follows: (dye: Cy3 (3' terminal)) 0.415 ± 0.035; (dye: Cy5 (3' terminal)) 0.321 ± 0.028.

As for “TTTTTGCATCATGATGCTGCTTTTTTTTTTTTTTTTGCAA [AACGT]”, the background-corrected fluorescence reads like this: (dye: Cy3 (3' terminal)) 0.594 ± 0.0062; (dye: Cy5 (3' terminal)) 0.463 ± 0.026.

Consider “TTTTTGCATCATGCGCAGCATTTTTTTTTTTTTTTTGATT [TTAGT]”, for which the background-corrected fluorescence reads like this: (dye: Cy3 (3' terminal)) 0.579 ± 0.035; (dye: Cy5 (3' terminal)) 0.419 ± 0.05.

Turning to “TTTTTGCATCATGCGCATCATTTTTTTTTTTTTTTTGATG [GTAGT]”, the background-corrected fluorescence by setting is: (dye: Cy3 (3' terminal)) 0.53 ± 0.0055; (dye: Cy5 (3' terminal)) 0.409 ± 0.037.

For the sequence “TTTTTGCATCATGCGCATGATTTTTTTTTTTTTTTTGATC [CTAGT]”, the background-corrected fluorescence by setting is: (dye: Cy3 (3' terminal)) 0.442 ± 0.024; (dye: Cy5 (3' terminal)) 0.335 ± 0.028.

For “TTTTTGCATCATGCGCATGCTTTTTTTTTTTTTTTTGATA [ATAGT]”, the background-corrected fluorescence by setting is: (dye: Cy3 (3' terminal)) 0.555 ± 0.039; (dye: Cy5 (3' terminal)) 0.481 ± 0.032.

On to “TTTTTGCATCATGCTCAGCATTTTTTTTTTTTTTTTGAGT”, for which the background-corrected fluorescence worked out at 0.659 ± 0.023 (dye: Cy3 (3' terminal)) and 0.539 ± 0.029 (dye: Cy5 (3' terminal)).

As for “TTTTTGCATCATGCTCATCATTTTTTTTTTTTTTTTGAGG [GGAGT]”, the background-corrected fluorescence is 0.67 ± 0.013 (dye: Cy3 (3' terminal)) and 0.529 ± 0.043 (dye: Cy5 (3' terminal)).

As for “TTTTTGCATCATGCTCATGATTTTTTTTTTTTTTTTGAGC [CGAGT]”, the background-corrected fluorescence worked out at 0.556 ± 0.024 (dye: Cy3 (3' terminal)) and 0.422 ± 0.08 (dye: Cy5 (3' terminal)).

“TTTTTGCATCATGCTCATGCTTTTTTTTTTTTTTTTGAGA [AGAGT]”: the background-corrected fluorescence by setting is: (dye: Cy3 (3' terminal)) 0.679 ± 0.038; (dye: Cy5 (3' terminal)) 0.593 ± 0.044.

“TTTTTGCATCATGCTGAGCATTTTTTTTTTTTTTTTGACT [TCAGT]”: the background-corrected fluorescence by setting is: (dye: Cy3 (3' terminal)) 0.473 ± 0.034; (dye: Cy5 (3' terminal)) 0.357 ± 0.022.

For “TTTTTGCATCATGCTGATCATTTTTTTTTTTTTTTTGACG [GCAGT]”, the background-corrected fluorescence was determined as 0.536 ± 0.016 (dye: Cy3 (3' terminal)) and 0.433 ± 0.063 (dye: Cy5 (3' terminal)).
